Molecular target: VopL C-terminal Domain (VCD), residues 247–484 (Vibrio parahaemolyticus) (UniProt Q87GE5)
Assay: crystal structure

“VopL C-terminal Domain (VCD), residues 247–484 (from UniProt Q87GE5 247-484) (domain or fragment)” gave a stoichiometry N of 2.

— PMC4048032
